In paper PMC3683571 (2013):
Where no end group is shown, it is not given here.

Target: PSMA (Homo sapiens, UniProt Q04609)
Assay: electrochemical impedance spectroscopy

SECVEVFQNSCDW (cysteine pairing not given here; also: displayed on M13 phage) [phage-2 (phage-displayed peptide 2)]
Kd: 54 nM
